Data set [1] in a line: plasma gemcitabine concentration in patients. Conditions: completion of infusion, gemcitabine 1250 mg/m^2. Format: in vivo, human. On the procedure:
Plasma motesanib and gemcitabine concentrations were analyzed using a validated liquid chromatography/tandem mass spectrometry (LC-MS/MS) method, respectively. […] All pharmacokinetic parameter estimates were calculated using standard noncompartmental methods and WinNonlin Professional software on […] (Version 5.1.1, Pharsight Corporation, Mountain View, Calif, USA).

For data set [2] the following is noted: bevacizumab 15-mg/kg cohort plus carboplatin/paclitaxel; locally advanced or metastatic NSCLC; grade 3/4, n = 5; cited from earlier work.
A short description of data set [3]: serum panitumumab concentration in patients. The data set is classed as in vivo, human. Conditions: panitumumab 9 mg/kg.
Data set [4] in a line: adverse events in patients (CTCAE version 3.0). Format: in vivo, human. How it is done: Adverse events were recorded throughout the study and graded (including DLTs) according to the Common Terminology Criteria for Adverse Events, version 3.0. Samples for assessment of hematology, blood chemistry, urinalysis, and thyroid function were collected on day 1 of each cycle.
Where [5] appears, read: 8 patients who received panitumumab and gemcitabine/cisplatin only.
Where [6] appears, read: all 41 patients (7%), only in patients who also received motesanib.

Several values for one entry are separate records, joined by “and”; a condition that tells them apart may be missing. Identical values can stand only once.

For `Nc1ccn([C@@H]2O[C@H](CO)[C@@H](O)C2(F)F)c(=O)n1` [gemcitabine], the “Plasma gemcitabine concentration (cycle 1), mean (SD)” value is 11000 ng/mL and 11000 (4220) ng/mL in data set [1] (No motesanib (0 mg QD), n 8); 8450 (7310) ng/mL in data set [1] (with motesanib 50 mg QD, n 8); 14400 (6020) ng/mL in data set [1] (with motesanib 75 mg QD, n 6); 6160 (3690) ng/mL in data set [1] (with motesanib 100 mg QD, n 6); 16100 ng/mL and 16100 (6800) ng/mL in data set [1] (with motesanib 125 mg QD, n 11). The “Plasma gemcitabine concentration (cycle 1), mean” value in data set [1] (with motesanib 75 mg BID, n 2) is reported as 8290 (NR) ng/mL.

bevacizumab: in data set [2], the “patient incidence rate of thrombotic events” value is recorded as 17.6%.

With panitumumab, the “Serum panitumumab, Cycle 4 postdose mean concentration (SD)” value in data set [3] (No motesanib (0 mg QD), n 3) is listed as 275 (118) μg/mL. In addition, the “Serum panitumumab, Cycle 4 predose mean concentration (SD)” value in data set [3] (No motesanib (0 mg QD), n 4) is 56.5 (39.6) μg/mL. In data set [3] (No motesanib (0 mg QD), n 6), the “Serum panitumumab, Cycle 2 postdose mean concentration (SD)” value is listed as 186 (62.9) μg/mL and the “Serum panitumumab, Cycle 2 predose mean concentration (SD)” value is given as 11.2 (15.5) μg/mL. Also, in data set [3] (No motesanib (0 mg QD), n 8), the “Serum panitumumab, Cycle 1 postdose mean concentration (SD)” value is listed as 206 (76.4) μg/mL. Also, in data set [3] (with motesanib 50 mg QD, n 3), the “Serum panitumumab, Cycle 4 postdose mean concentration (SD)” value is reported as 232 (52.8) μg/mL and the “Serum panitumumab, Cycle 4 predose mean concentration (SD)” value is reported as 10.5 (6.4) μg/mL. Also, in data set [3] (with motesanib 50 mg QD, n 5), the “Serum panitumumab, Cycle 2 postdose mean concentration (SD)” value is reported as 193 (37.5) μg/mL. In data set [3] (with motesanib 50 mg QD, n 7), the “Serum panitumumab, Cycle 1 postdose mean concentration (SD)” value was 174 (24.9) μg/mL and the “Serum panitumumab, Cycle 2 predose mean concentration (SD)” value is on record as 9.0 (5.8) μg/mL. In data set [3] (with motesanib 75 mg BID, n 1), the “Serum panitumumab, Cycle 2 postdose mean concentration” value is listed as 217 (NR) μg/mL and the “Serum panitumumab, Cycle 2 predose mean concentration” value is listed as 11.2 (NR) μg/mL. For the same compound, the “Serum panitumumab, Cycle 1 postdose mean concentration” value in data set [3] (with motesanib 75 mg BID, n 2) is given as 189 (NR) μg/mL. In data set [3] (with motesanib 75 mg QD, n 5), the “Serum panitumumab, Cycle 4 predose mean concentration (SD)” value is 32.5 (21.3) μg/mL. For the same compound, in data set [3] (with motesanib 75 mg QD, n 6), the “Serum panitumumab, Cycle 1 postdose mean concentration (SD)” value is 158 (24.2) μg/mL; the “Serum panitumumab, Cycle 2 postdose mean concentration (SD)” value is listed as 194 (21.5) μg/mL; the “Serum panitumumab, Cycle 2 predose mean concentration (SD)” value is reported as 13.1 (13.5) μg/mL; the “Serum panitumumab, Cycle 4 postdose mean concentration (SD)” value is 218 (26.1) μg/mL. Besides, the “Serum panitumumab, Cycle 4 postdose mean concentration” value in data set [3] (with motesanib 100 mg QD, n 2) is recorded as 290 (NR) μg/mL. Also, in data set [3] (with motesanib 100 mg QD, n 4), the “Serum panitumumab, Cycle 2 postdose mean concentration (SD)” value is 224 (51.8) μg/mL and the “Serum panitumumab, Cycle 4 predose mean concentration (SD)” value is 41.6 (16.5) μg/mL. In data set [3] (with motesanib 100 mg QD, n 5), the “Serum panitumumab, Cycle 1 postdose mean concentration (SD)” value is 194 (27.1) μg/mL and the “Serum panitumumab, Cycle 2 predose mean concentration (SD)” value was 18.9 (10.7) μg/mL. In addition, in data set [3] (with motesanib 125 mg QD, n 3), the “Serum panitumumab, Cycle 4 postdose mean concentration (SD)” value is given as 170 (55.0) μg/mL and the “Serum panitumumab, Cycle 4 predose mean concentration (SD)” value is reported as 21.7 (22.0) μg/mL. Besides, in data set [3] (with motesanib 125 mg QD, n 6), the “Serum panitumumab, Cycle 2 postdose mean concentration (SD)” value is 213 (39.0) μg/mL and the “Serum panitumumab, Cycle 2 predose mean concentration (SD)” value is recorded as 13.4 (14.2) μg/mL. In data set [3] (with motesanib 125 mg QD, n 11), the “Serum panitumumab, Cycle 1 postdose mean concentration (SD)” value was 203 (82.9) μg/mL. Besides, in data set [4] (setting [5]), the panitumumab-related dermatitis acneiform came out at 5 patients, the panitumumab-related erythema was determined as 5 patients, the panitumumab-related nausea is 6 patients and the panitumumab-related pruritus came to 5 patients. Moreover, the panitumumab-related rash in data set [4] (setting [5]) was found to be 6 patients. In data set [4] (all 41 patients), the panitumumab-related anemia was found to be 7 patients, the panitumumab-related anorexia is recorded as 11 patients, the panitumumab-related diarrhea was determined as 16 patients and the panitumumab-related dry skin is 7 patients. Besides, in data set [4] (all 41 patients), the panitumumab-related fatigue is 19 patients, the panitumumab-related hypomagnesemia is 17 patients, the panitumumab-related nausea worked out at 21 patients and the panitumumab-related pruritus amounted to 18 patients. For the same compound, in data set [4] (all 41 patients), the panitumumab-related rash was 22 patients and the panitumumab-related vomiting is recorded as 12 patients. The same compound came in with a serious panitumumab-related diarrhea in data set [4] (all 41 patients (5%)) of 2 patients. For the same compound, the serious panitumumab-related dehydration in data set [4] (all 41 patients (7%)) is listed as 3 patients. In addition, in data set [4] (setting [6]), the “serious panitumumab-related deep vein thrombosis” value is 3 patients and the “serious panitumumab-related pulmonary embolism” value stood at 3 patients. In addition, the “patients with serious panitumumab-related events” value in data set [4] (all 41 patients, eleven patients) was 27%. For the same compound, the “patients who discontinued panitumumab because of adverse events” value in data set [4] (all cohorts) is on record as 11 patients.
